Assay results published in patent publication US20070021348.

Target: human APP isoform 695 (in SH-SY5Y APP695 cells), P05067
Sequence (P05067 whole entry, looked up, canonical isoform): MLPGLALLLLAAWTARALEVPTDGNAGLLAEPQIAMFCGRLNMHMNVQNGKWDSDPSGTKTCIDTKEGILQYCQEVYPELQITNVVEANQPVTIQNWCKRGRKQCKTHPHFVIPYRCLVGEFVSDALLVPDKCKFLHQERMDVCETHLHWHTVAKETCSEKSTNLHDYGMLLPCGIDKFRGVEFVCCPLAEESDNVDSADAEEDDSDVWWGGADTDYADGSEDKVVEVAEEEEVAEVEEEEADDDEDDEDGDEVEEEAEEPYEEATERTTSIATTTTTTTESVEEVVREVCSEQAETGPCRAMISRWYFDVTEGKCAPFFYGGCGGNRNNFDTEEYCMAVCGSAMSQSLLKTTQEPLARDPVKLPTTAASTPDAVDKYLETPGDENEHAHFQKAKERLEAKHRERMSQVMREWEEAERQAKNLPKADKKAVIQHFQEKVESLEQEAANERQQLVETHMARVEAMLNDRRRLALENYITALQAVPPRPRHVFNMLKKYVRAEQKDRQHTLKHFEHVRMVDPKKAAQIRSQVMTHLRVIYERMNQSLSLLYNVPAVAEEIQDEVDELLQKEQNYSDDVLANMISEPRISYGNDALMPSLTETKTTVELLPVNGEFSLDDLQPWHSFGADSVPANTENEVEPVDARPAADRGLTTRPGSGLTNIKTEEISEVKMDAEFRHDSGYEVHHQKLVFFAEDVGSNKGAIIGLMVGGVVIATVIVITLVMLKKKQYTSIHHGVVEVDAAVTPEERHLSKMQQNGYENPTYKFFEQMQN

Protein	sAPPβ (110 kDa) in media, Western blot	sAPPβ in media, Western blot
Asp 2 (transiently expressed from pcDNA3.1aMycHis) (protein) ETDEEPEEPGRRGSFVEMVDNLRGKSGQGYYVEMTVGSPPQTLNILVDTGSSNFAVGAAPHPFLHRYYQRQLSSTYRDLRKGVYVPYTQGKWEGELGTDLVSIPHGPNVTVRANIAAITESDKFFINGSNWEGILGLAYAEIARPDDSLEPFFDSLVKQTHVPNLFSLQLCGAGFPLNQSEVLASVGGSMIIGGIDHSLYTGSLWYTPIRREWYYEVIIVRVEINGQDLKMDCKEYNYDKSIVDSGTTNLRLPKKVFEAAVKSIKAASSTEKFPDGFWLGEQLVCWQAGTTPWNIFPVISLYLMGEVTNQSFRITILPQQYLRPVEDVATSQDDCYKFAISQSSTGTVMGAVIMEGFYVVFDRARKRIGFAVSACHVHDEFRTAAVEGPFVTLDMEDCGYNIPQTDESTLMTIAYVMAAICALFMLPLCLMVCQWRCLRCLRQQHDDFADDISLLK	An increase in sAPPβ (110 kDa) was observed in the media from Asp 2 transfected cells compared to empty vector pcDNA3.1MycHis transfected control cells	–
Asp 2 active site mutant D289N (protein) ETDEEPEEPGRRGSFVEMVDNLRGKSGQGYYVEMTVGSPPQTLNILVDTGSSNFAVGAAPHPFLHRYYQRQLSSTYRDLRKGVYVPYTQGKWEGELGTDLVSIPHGPNVTVRANIAAITESDKFFINGSNWEGILGLAYAEIARPDDSLEPFFDSLVKQTHVPNLFSLQLCGAGFPLNQSEVLASVGGSMIIGGIDHSLYTGSLWYTPIRREWYYEVIIVRVEINGQDLKMDCKEYNYDKSIVNSGTTNLRLPKKVFEAAVKSIKAASSTEKFPDGFWLGEQLVCWQAGTTPWNIFPVISLYLMGEVTNQSFRITILPQQYLRPVEDVATSQDDCYKFAISQSSTGTVMGAVIMEGFYVVFDRARKRIGFAVSACHVHDEFRTAAVEGPFVTLDMEDCGYNIPQTDESTLMTIAYVMAAICALFMLPLCLMVCQWRCLRCLRQQHDDFADDISLLK	–	There was no increase in sAPPβ secreted from cells transfected with either of the Asp-Asn mutants D93N or D289N
Asp 2 active site mutant D93N (protein) ETDEEPEEPGRRGSFVEMVDNLRGKSGQGYYVEMTVGSPPQTLNILVNTGSSNFAVGAAPHPFLHRYYQRQLSSTYRDLRKGVYVPYTQGKWEGELGTDLVSIPHGPNVTVRANIAAITESDKFFINGSNWEGILGLAYAEIARPDDSLEPFFDSLVKQTHVPNLFSLQLCGAGFPLNQSEVLASVGGSMIIGGIDHSLYTGSLWYTPIRREWYYEVIIVRVEINGQDLKMDCKEYNYDKSIVDSGTTNLRLPKKVFEAAVKSIKAASSTEKFPDGFWLGEQLVCWQAGTTPWNIFPVISLYLMGEVTNQSFRITILPQQYLRPVEDVATSQDDCYKFAISQSSTGTVMGAVIMEGFYVVFDRARKRIGFAVSACHVHDEFRTAAVEGPFVTLDMEDCGYNIPQTDESTLMTIAYVMAAICALFMLPLCLMVCQWRCLRCLRQQHDDFADDISLLK	–	There was no increase in sAPPβ secreted from cells transfected with either of the Asp-Asn mutants D93N or D289N
